Target: T1, Bacillus licheniformis subtilisin A (Bacillus licheniformis, UniProt P00780 106-379)
T1 sequence (looked up): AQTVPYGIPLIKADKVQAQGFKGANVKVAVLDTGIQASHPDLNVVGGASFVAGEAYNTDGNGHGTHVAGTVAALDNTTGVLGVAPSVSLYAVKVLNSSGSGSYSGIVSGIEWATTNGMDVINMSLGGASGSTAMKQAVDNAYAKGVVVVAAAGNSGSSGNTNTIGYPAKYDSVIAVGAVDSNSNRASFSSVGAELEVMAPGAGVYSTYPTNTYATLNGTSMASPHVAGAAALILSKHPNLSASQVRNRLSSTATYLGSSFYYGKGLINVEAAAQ
Experiment: enzyme inhibition assay

fold decrease of IC50 against rCmPI-II: 3 fold
Binder: AEDCVGRKACTAEWYPVCGSDGVTYSNPCNFSAQQEQCDPNITIAHMGEC (natural protein, Cenchritis muricatus, UniProt P84755 1-50, looked up) [rCmPI-II R12A, alanine mutant at the P1 position of CmPI-II]
